Legend:
[1] = biological target: soluble single-chain FcRn (human) (UniProt P55899); assay: SPR (BIACORE X), scFcRn amine-coupled to CM5 chip, pH 6.0, two-state reaction model, mean of three runs
[2] = biological target: soluble single-chain FcRn (human) (UniProt P55899); assay: SPR (BIACORE X), scFcRn amine-coupled to CM5 chip, antibody as analyte 25-400 nM, pH 6.0, two-state reaction model, Run 1
[3] = biological target: soluble single-chain FcRn (human) (UniProt P55899); assay: SPR (BIACORE X), scFcRn amine-coupled to CM5 chip, antibody as analyte 25-400 nM, pH 6.0, two-state reaction model, Run 2
[4] = biological target: soluble single-chain FcRn (human) (UniProt P55899); assay: SPR (BIACORE X), scFcRn amine-coupled to CM5 chip, antibody as analyte 25-400 nM, pH 6.0, two-state reaction model, Run 3

Kd [1]: 0.0163 µM | Kd [2]: 0.015 µM | Kd [3]: 0.0179 µM | Kd [4]: 0.0158 µM
Substance: epratuzumab (antibody)
